Data from patent US20200123228A1.
Read-outs that look alike come from different tables or passages of the source.

Assays:
[1] = target: rmCTLA4 (mouse) (UniProt P09793); test: ELISA
[2] = target: rmCTLA4 (mouse) (UniProt P09793); test: ELISA; remark: listed apart in the source
[3] = target: Collagen I (human) (UniProt P02452); test: ELISA
[4] = target: Fibronectin (human) (UniProt P02751); test: ELISA
[5] = target: rmCTLA4 (mouse) (UniProt P09793); test: ELISA; remark: listed apart in the source
[6] = target: bovine collagen (Symatese), polymerized gel (bovine); test: retention on polymerized bovine collagen gel, antibody loaded at 10 µg/mL, released antibody measured by ELISA

Chain of rmCTLA4 (mouse) (P09793 36-162): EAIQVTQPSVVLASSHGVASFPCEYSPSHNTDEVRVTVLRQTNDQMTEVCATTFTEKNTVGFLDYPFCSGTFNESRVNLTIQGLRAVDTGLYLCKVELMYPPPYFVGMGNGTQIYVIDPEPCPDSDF
Chain of Fibronectin (human) (P02751 32-2477): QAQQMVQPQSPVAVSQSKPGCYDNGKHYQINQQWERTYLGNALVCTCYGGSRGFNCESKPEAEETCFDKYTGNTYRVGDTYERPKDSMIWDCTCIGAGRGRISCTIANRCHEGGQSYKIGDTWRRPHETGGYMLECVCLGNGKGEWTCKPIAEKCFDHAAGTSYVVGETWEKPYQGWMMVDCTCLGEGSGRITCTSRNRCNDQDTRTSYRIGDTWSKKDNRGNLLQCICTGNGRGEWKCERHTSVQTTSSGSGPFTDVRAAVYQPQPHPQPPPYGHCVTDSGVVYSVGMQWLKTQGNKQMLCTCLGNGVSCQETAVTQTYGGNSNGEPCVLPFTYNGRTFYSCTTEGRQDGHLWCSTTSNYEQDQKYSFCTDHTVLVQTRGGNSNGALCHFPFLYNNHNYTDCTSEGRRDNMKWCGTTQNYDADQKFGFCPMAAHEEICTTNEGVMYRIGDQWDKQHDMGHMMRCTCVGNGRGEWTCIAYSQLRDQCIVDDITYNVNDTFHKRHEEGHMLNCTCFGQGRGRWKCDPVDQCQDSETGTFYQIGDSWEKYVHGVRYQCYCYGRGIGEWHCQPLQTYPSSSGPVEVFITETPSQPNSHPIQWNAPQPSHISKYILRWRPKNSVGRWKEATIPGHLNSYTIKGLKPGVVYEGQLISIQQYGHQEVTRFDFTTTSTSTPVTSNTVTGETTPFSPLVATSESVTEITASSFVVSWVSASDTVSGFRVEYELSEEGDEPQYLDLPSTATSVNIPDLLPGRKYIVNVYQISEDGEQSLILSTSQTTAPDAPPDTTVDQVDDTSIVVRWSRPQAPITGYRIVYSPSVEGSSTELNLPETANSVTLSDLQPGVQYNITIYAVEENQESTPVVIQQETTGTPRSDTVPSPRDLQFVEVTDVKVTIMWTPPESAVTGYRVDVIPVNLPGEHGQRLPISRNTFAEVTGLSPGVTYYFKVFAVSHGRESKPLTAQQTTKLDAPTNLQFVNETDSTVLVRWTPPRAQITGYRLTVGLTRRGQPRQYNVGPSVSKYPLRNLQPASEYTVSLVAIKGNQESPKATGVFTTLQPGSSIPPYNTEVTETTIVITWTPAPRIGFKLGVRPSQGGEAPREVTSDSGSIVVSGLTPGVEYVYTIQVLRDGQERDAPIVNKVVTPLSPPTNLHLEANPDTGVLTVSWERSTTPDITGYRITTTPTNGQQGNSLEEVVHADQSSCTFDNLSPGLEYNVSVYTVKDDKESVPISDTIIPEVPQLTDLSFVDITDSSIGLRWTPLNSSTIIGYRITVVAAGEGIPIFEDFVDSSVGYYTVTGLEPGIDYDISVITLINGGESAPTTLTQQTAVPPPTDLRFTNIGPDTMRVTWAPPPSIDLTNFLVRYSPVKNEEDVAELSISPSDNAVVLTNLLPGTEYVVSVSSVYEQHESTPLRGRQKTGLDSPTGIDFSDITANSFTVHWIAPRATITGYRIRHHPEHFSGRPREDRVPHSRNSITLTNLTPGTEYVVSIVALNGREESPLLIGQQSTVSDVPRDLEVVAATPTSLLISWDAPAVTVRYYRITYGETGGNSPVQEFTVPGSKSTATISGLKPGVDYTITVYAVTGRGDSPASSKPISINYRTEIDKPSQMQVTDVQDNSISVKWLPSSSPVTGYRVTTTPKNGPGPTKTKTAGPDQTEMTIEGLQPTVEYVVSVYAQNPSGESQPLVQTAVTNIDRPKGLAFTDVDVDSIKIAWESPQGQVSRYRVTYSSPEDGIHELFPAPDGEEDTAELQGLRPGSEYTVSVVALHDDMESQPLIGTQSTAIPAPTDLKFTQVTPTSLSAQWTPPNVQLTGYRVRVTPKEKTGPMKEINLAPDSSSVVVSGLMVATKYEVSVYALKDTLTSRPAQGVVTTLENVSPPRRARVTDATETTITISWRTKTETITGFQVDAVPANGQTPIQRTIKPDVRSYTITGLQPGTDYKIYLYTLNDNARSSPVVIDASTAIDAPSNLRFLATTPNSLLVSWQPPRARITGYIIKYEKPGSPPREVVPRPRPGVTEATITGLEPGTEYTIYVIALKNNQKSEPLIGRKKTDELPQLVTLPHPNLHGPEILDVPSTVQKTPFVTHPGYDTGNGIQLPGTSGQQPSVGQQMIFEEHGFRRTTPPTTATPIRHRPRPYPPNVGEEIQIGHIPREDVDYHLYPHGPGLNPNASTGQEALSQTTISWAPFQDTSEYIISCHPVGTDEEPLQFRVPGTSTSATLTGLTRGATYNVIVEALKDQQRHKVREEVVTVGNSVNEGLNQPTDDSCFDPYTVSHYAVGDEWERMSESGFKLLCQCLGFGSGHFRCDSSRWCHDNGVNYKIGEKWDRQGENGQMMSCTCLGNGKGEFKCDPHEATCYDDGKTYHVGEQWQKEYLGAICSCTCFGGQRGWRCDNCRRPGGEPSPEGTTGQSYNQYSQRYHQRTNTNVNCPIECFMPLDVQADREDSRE
Chain of Collagen I (human) (P02452 162-1218, chain 1 of 2): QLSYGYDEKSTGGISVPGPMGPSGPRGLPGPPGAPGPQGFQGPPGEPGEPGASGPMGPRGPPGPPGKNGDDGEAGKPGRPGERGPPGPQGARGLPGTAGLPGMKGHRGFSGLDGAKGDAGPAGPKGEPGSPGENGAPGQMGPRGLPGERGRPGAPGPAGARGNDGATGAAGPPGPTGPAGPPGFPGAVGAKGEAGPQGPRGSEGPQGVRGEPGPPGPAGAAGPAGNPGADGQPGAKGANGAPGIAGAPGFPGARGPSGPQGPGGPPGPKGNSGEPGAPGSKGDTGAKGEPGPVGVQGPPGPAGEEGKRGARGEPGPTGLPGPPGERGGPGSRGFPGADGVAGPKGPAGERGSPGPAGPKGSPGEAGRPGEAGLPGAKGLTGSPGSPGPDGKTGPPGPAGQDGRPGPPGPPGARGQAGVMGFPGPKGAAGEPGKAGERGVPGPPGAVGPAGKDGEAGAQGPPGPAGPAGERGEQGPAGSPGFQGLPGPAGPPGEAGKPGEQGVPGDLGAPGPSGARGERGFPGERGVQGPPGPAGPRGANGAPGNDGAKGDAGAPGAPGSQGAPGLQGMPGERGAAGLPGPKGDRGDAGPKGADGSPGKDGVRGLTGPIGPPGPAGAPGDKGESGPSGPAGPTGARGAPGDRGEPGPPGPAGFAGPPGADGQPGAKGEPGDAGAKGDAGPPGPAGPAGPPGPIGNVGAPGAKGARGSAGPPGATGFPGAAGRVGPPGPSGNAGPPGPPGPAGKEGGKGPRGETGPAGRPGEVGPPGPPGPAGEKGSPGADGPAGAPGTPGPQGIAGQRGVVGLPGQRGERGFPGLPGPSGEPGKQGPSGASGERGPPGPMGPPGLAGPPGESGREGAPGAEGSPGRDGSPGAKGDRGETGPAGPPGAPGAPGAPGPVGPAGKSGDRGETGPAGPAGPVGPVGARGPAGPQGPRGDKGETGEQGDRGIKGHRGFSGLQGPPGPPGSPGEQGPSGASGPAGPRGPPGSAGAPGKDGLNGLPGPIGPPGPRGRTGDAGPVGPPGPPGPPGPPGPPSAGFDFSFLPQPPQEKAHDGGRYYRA
Chain of Collagen I (human) (P08123 80-1119, chain 2 of 2, further chain): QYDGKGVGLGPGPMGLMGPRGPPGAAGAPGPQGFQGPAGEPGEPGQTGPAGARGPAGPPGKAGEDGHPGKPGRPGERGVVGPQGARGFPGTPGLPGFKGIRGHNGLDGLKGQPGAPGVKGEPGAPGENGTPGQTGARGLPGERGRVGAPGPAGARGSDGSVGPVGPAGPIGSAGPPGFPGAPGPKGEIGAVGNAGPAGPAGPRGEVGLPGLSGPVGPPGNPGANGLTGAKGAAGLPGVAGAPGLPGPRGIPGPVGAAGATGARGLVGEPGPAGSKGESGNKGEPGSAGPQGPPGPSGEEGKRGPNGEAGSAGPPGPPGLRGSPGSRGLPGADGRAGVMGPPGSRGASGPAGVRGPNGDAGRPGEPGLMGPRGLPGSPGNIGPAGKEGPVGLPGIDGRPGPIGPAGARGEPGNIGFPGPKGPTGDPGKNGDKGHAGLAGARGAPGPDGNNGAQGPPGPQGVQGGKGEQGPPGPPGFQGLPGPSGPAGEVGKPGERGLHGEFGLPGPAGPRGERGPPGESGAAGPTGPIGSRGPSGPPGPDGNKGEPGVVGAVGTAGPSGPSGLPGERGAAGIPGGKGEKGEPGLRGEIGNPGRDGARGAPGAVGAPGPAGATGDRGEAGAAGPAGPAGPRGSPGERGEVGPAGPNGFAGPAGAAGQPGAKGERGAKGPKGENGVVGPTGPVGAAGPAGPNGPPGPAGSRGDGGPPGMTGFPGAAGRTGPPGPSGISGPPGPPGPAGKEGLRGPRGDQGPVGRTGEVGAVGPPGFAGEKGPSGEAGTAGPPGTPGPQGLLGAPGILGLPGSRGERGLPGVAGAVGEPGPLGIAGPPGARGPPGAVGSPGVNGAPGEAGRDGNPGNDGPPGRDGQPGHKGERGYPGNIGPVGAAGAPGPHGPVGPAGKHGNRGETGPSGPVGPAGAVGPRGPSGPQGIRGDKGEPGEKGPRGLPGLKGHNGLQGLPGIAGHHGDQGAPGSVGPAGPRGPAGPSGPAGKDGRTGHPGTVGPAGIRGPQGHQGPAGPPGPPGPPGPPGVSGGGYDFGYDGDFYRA

Substance	Kd [1] [nM]	Kd [2] [nM]	Kd [3] [nM]	Kd [4] [nM]	Kd [5] [nM]	% of antibody released by plasmin digestion after buffer changes [6] [%]
4F10	0.101	0.1	–	–	–	–
9H10	15	–	–	–	–	–
PlGF-2123-144-4F10	0.16	–	26.7	4.7	0.157	–
PlGF-2123-144-9H10	5.7	–	1.3	0.87	–	–
rat anti-mouse PD-L1 (clone 10F.9G2), wild-type (antibody)	–	–	–	–	–	< 0.1
